Laboratory results published in patent US20230052142A1 (NORDIC BIOSCIENCE A S, published 2023).

Molecular target: T1, monoclonal antibody clone NBH134 #102-3GF
T1 construct: also called TUM antibody; HRP labeled monoclonal antibody
Test: TUM competitive ELISA: the standard peptide in solution competes with plate-bound …-K-Biotin for the HRP-labelled antibody
Procedure: Plates were washed five times in washing buffer (20 mM TRIS, 50 mM NaCl, pH 7.2). Subsequently, 20 μL of standard peptide or sample were added to appropriate wells, followed by 100 μL of 7 ng/mL horseradish peroxidase (HRP) labeled monoclonal antibody solution. The plates were incubated for 1 hour at 20° C. with shaking, and subsequently washed in washing buffer. Finally, 100 μL 3,3′,5,5-tetramethylbenzinidine (TMB) (Kem-En-Tec cat. 4380H) was added, and incubated for 15 min at 20° C. To stop the enzyme reaction of TMB, 100 μL of stopping solution (1% H₂SO₄) was added. The plate was analyzed by an ELISA reader at 450 nm with 650 nm as reference (Molecular Devices, VersaMax, CA, USA). A standard curve was performed by serial dilution of the standard peptide and plotted using a 4-parametric mathematical fit model. Standard concentrations were 0, 0.3125, 0.625, 1.25, 2.5, 5, 10, and 20 ng/mL. Each plate included five kit controls to monitor inter-assay variation. All samples were measured within the range of the assay, and all samples below lower limit of measurement range (LLMR) were reported as the value of LLMR.

B1: standard peptide PGLKGKRGDS (peptide)
peptide: PGLKGKRGDS
notes: Synthetic peptide bought from Genscript; also called calibrator peptide; calibration peptide
B1 was tested. Which IC50 did it give?
The IC50 was 1.6 ng/mL.
